Literature values as cited in paper PMC3530658.

Biological target: FEN-1 (Homo sapiens) (UniProt P39748)
Chain of UniProt P39748 (P39748 whole entry): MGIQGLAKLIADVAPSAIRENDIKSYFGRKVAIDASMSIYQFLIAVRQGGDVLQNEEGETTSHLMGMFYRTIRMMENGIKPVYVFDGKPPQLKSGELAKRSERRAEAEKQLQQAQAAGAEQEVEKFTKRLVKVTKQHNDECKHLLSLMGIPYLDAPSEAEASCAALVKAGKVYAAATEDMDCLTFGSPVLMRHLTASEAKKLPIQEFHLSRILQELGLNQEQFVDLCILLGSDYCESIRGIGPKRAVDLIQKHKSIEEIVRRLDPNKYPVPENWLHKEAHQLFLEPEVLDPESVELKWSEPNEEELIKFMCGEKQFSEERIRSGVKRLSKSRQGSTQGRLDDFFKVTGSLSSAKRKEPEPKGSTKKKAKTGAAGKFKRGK

NEIL1 CTD (from UniProt Q96FI4)
Kd: 200 nM
